Measurements reported in the supplement of paper PMC7877785.
± gives the uncertainty stated by the source.

Assay: self-splicing fitness, log relative to wild type (ln ratio); higher = more splicing; Tetrahymena group I intron in knt gene, E. coli kanamycin selection, DiMSum; sequences stand for … in CUCUCU…GGAGGGAAAAGUUAUCAGGCAUGCACCUGGUAGCUAGUCUUUAAACCAAUAGAUUGCAUCGGUUUAAAAGGCAAGACCGUCAAAUUGCGGGAAAGGGGUCAACAGCCGUUCAGUACCAAGUCUCAGGGGAAACUUUGAGAUGGCCUUGCAAAGGGUAUGGUAAUAAGCUGACGGACAUGGUCCUAACCACGCAGCCAAGUCCUAAGUCAACAGAUCUUCUGUUGAUAUGGAUGCAGUUCACAGACUAAAUGUCGGUCGGGGAAGAUGUAUUCUUCUCAUAAGAUAUAGUCGGACCUCUCCUUAAUGGGAGCUAGCGGAUGAAGUGAUGCAACACUGGAGCCGCUGGGAACUAAUUUGUAUGCGAAAGUAUAUUGAUUAGUUUUGGAGUACUCGUGGUCG
How it was run: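 The eight P1ex-region nucleotides of an intron in the knt kanamycin-resistance gene on pET-22b(+) were all randomised and the library put into E. coli BL21(DE3). Six replicate transformations were grown overnight at 37°C or 30°C on LB agar with or without 25 μg/mL kanamycin, together with 100 μg/mL carbenicillin, 50 μM IPTG and 0.2% rhamnose. Colonies were pooled and amplicon-sequenced on an Illumina HiSeq 2500. Fitness from DiMSum is the error-weighted combination of wild-type-normalised replicate fold changes, kanamycin over none.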

Sequence | self-splicing fitness (ln) (30 °C) | self-splicing fitness (ln) (37 °C)
GUUAAGCAAUAUUACGUCUU | -0.682 ± 0.09 | -0.56 ± 0.11
GUUAAGCAAUAUUACGUUGU | -3.68 ± 0.16 | -2.28 ± 0.2
GUUCAGCAAUAUUACGAACG | -2.55 ± 0.35 | -0.953 ± 0.23
GUUCAGCAAUAUUACGAAGU | -0.606 ± 0.098 | -0.391 ± 0.12
GUUCAGCAAUAUUACGAGAU | -2.51 ± 0.16 | -0.359 ± 0.12
GUUCAGCAAUAUUACGAGCC | -3.38 ± 0.18 | -2.48 ± 0.24
GUUCAGCAAUAUUACGAGUA | -1.66 ± 0.19 | -0.65 ± 0.16
GUUCAGCAAUAUUACGAGUC | -1.32 ± 0.15 | -0.628 ± 0.17
GUUCAGCAAUAUUACGAUUA | -0.665 ± 0.12 | -0.545 ± 0.097
GUUCAGCAAUAUUACGCACG | -0.107 ± 0.22 | -0.682 ± 0.31
GUUCAGCAAUAUUACGCCUA | -0.396 ± 0.15 | 0.127 ± 0.14
GUUCAGCAAUAUUACGCGGU | -1.52 ± 0.11 | -1.69 ± 0.14
GUUCAGCAAUAUUACGGACG | -2.15 ± 0.11 | -0.428 ± 0.11
GUUCAGCAAUAUUACGGAGC | -2.39 ± 0.32 | -1.53 ± 0.42
GUUCAGCAAUAUUACGGCAA | -0.436 ± 0.078 | -0.458 ± 0.1
GUUCAGCAAUAUUACGGCCU | -1.02 ± 0.2 | -0.57 ± 0.24
GUUCAGCAAUAUUACGGGAU | -2.24 ± 0.18 | -1.58 ± 0.35
GUUCAGCAAUAUUACGGGCA |  | -1.11 ± 0.34
GUUCAGCAAUAUUACGGGCG | -1.57 ± 0.15 | -0.592 ± 0.15
GUUCAGCAAUAUUACGGGGA | -4.6 ± 0.46 | -2.56 ± 0.22
GUUCAGCAAUAUUACGGUCC | -0.652 ± 0.19 | 0.182 ± 0.23
GUUCAGCAAUAUUACGGUGA | -2.66 ± 0.17 | -1.08 ± 0.13
GUUCAGCAAUAUUACGGUGU | -0.503 ± 0.05 | 0.262 ± 0.075
GUUCAGCAAUAUUACGUUAC | -1.98 ± 0.13 | -1 ± 0.094
GUUCAGCAAUAUUACGUUGG | -2.92 ± 0.17 | -1.62 ± 0.15

Sequence | self-splicing fitness (ln) (30 °C) | self-splicing fitness (ln) (37 °C)
GUUGAGCAAUAUUACGAAAG | -2.93 ± 0.38 | 0.317 ± 0.17
GUUGAGCAAUAUUACGAACG |  | -1.12 ± 0.35
GUUGAGCAAUAUUACGACAA | -2.38 ± 0.33 | -2.54 ± 0.44
GUUGAGCAAUAUUACGACAU | -0.358 ± 0.014 | -0.067 ± 0.034
GUUGAGCAAUAUUACGACUA | -2.4 ± 0.18 | -2.85 ± 0.22
GUUGAGCAAUAUUACGAGAA |  | -0.619 ± 0.5
GUUGAGCAAUAUUACGCAAA | -2.73 ± 0.35 | -0.984 ± 0.14
GUUGAGCAAUAUUACGCACU | -1.26 ± 0.15 | -0.723 ± 0.2
GUUGAGCAAUAUUACGCAUA | -2.36 ± 0.24 | -1.1 ± 0.17
GUUGAGCAAUAUUACGCAUG | -2.87 ± 0.16 | -1.18 ± 0.16
GUUGAGCAAUAUUACGCCAU |  | -1.09 ± 0.35
GUUGAGCAAUAUUACGCCGG |  | 0.442 ± 0.29
GUUGAGCAAUAUUACGCGAG | -1.35 ± 0.18 | -0.457 ± 0.17
GUUGAGCAAUAUUACGCUGA | -3.9 ± 0.35 | -2.61 ± 0.24
GUUGAGCAAUAUUACGGCGC | -0.744 ± 0.18 | -0.21 ± 0.22
GUUGAGCAAUAUUACGGCGU | -1.02 ± 0.13 | -0.302 ± 0.2
GUUGAGCAAUAUUACGGGUA | -2.46 ± 0.26 | 
GUUGAGCAAUAUUACGGUGA |  | -2.78 ± 0.44
GUUGAGCAAUAUUACGUAGC | -0.983 ± 0.2 | -2.07 ± 0.35
GUUGAGCAAUAUUACGUAGU | -2.05 ± 0.15 | -1.31 ± 0.18
GUUGAGCAAUAUUACGUCUU | -1.53 ± 0.17 | -1.72 ± 0.2
GUUGAGCAAUAUUACGUGCU | -1.95 ± 0.35 | 
GUUGAGCAAUAUUACGUUAU | -3.37 ± 0.18 | -0.445 ± 0.17
GUUUAGCAAUAUUACGAACU |  | -2.69 ± 0.44
GUUUAGCAAUAUUACGACGU | -0.531 ± 0.1 | 0.347 ± 0.14

Sequence | self-splicing fitness (ln) (30 °C) | self-splicing fitness (ln) (37 °C)
GUUUAGCAAUAUUACGAGCG | -1.6 ± 0.12 | -0.465 ± 0.12
GUUUAGCAAUAUUACGAGUC |  | -0.725 ± 0.21
GUUUAGCAAUAUUACGAUCA | -1.38 ± 0.31 | -0.619 ± 0.16
GUUUAGCAAUAUUACGCACA | -0.867 ± 0.12 | -0.0205 ± 0.14
GUUUAGCAAUAUUACGCAUA | -1.69 ± 0.18 | -1.19 ± 0.19
GUUUAGCAAUAUUACGCAUC | -1.28 ± 0.14 | -1.04 ± 0.19
GUUUAGCAAUAUUACGCCCG | -3.02 ± 0.24 | -1.18 ± 0.24
GUUUAGCAAUAUUACGCGUC | -1.79 ± 0.24 | -0.647 ± 0.24
GUUUAGCAAUAUUACGCGUU | -1.75 ± 0.16 | -0.943 ± 0.2
GUUUAGCAAUAUUACGCUCU | -0.694 ± 0.091 | -0.764 ± 0.11
GUUUAGCAAUAUUACGCUUA | -1.24 ± 0.15 | -0.129 ± 0.12
GUUUAGCAAUAUUACGCUUU | -2.38 ± 0.25 | -0.513 ± 0.22
GUUUAGCAAUAUUACGGAAU | -2.56 ± 0.31 | -1.26 ± 0.31
GUUUAGCAAUAUUACGGCAG | -2.12 ± 0.26 | -1.66 ± 0.38
GUUUAGCAAUAUUACGGCCU | -0.716 ± 0.15 | 0.714 ± 0.15
GUUUAGCAAUAUUACGGCUG | -1.79 ± 0.1 | -0.169 ± 0.17
GUUUAGCAAUAUUACGGGCA | -1.85 ± 0.17 | -0.96 ± 0.15
GUUUAGCAAUAUUACGGGCU | -3.45 ± 0.34 | -0.606 ± 0.2
GUUUAGCAAUAUUACGGGGU | -3.3 ± 0.35 | -2.29 ± 0.2
GUUUAGCAAUAUUACGGGUA | -3 ± 0.24 | -1.61 ± 0.17
GUUUAGCAAUAUUACGUAAG | -0.762 ± 0.085 | 0.076 ± 0.15
GUUUAGCAAUAUUACGUCGC | -1.67 ± 0.16 | -0.462 ± 0.18
GUUUAGCAAUAUUACGUGCU | -2.18 ± 0.16 | -1.31 ± 0.17
GUUUAGCAAUAUUACGUGGG | -3.78 ± 0.37 | -2.45 ± 0.23
GUUUAGCAAUAUUACGUGGU |  | -1.23 ± 0.44

Sequence | self-splicing fitness (ln) (30 °C) | self-splicing fitness (ln) (37 °C)
UAAAAGCAAUAUUACGAGAU | -3.14 ± 0.13 | -2.98 ± 0.2
UAAAAGCAAUAUUACGAUUU | -1.36 ± 0.11 | -0.59 ± 0.11
UAAAAGCAAUAUUACGCAAC | -4.54 ± 0.34 | -2.13 ± 0.21
UAAAAGCAAUAUUACGCAUC | -2.95 ± 0.15 | -2.36 ± 0.21
UAAAAGCAAUAUUACGCCCG | -0.0582 ± 0.21 | 0.323 ± 0.23
UAAAAGCAAUAUUACGCCUC | -2.82 ± 0.43 | 
UAAAAGCAAUAUUACGGAAG | -2.03 ± 0.15 | -0.624 ± 0.15
UAAAAGCAAUAUUACGGGCG | -0.0526 ± 0.069 | 0.305 ± 0.076
UAAAAGCAAUAUUACGGGUC | -3.09 ± 0.25 | -2.82 ± 0.27
UAAAAGCAAUAUUACGGGUU | -3.85 ± 0.28 | -1.48 ± 0.12
UAAAAGCAAUAUUACGUCCU | -0.564 ± 0.095 | 0.00684 ± 0.13
UAAAAGCAAUAUUACGUCGU | -3.29 ± 0.13 | -2.17 ± 0.11
UAAAAGCAAUAUUACGUCUC | -3.48 ± 0.17 | -3 ± 0.17
UAAAAGCAAUAUUACGUGAA | -1.36 ± 0.082 | -1.06 ± 0.1
UAAAAGCAAUAUUACGUGAG | -0.888 ± 0.044 | -0.622 ± 0.078
UAAAAGCAAUAUUACGUGGU | -3.53 ± 0.13 | -2.28 ± 0.14
UAAAAGCAAUAUUACGUUAG | -1.37 ± 0.069 | -1.33 ± 0.088
UAAAAGCAAUAUUACGUUCU | -1.87 ± 0.14 | -1.13 ± 0.14
UAACAGCAAUAUUACGAAUA | -0.62 ± 0.1 | -0.528 ± 0.1
UAACAGCAAUAUUACGAUUG | -1.57 ± 0.056 | -0.741 ± 0.082
UAACAGCAAUAUUACGCAAU | -2.89 ± 0.15 | -0.816 ± 0.15
UAACAGCAAUAUUACGCCAG | -2.03 ± 0.12 | -1.42 ± 0.18
UAACAGCAAUAUUACGCGGC | -3.99 ± 0.28 | -2.65 ± 0.35
UAACAGCAAUAUUACGGAGC |  | -2.58 ± 0.29
